# Data reported in article PMC9424733, “Lysine acetylation of Escherichia coli lactate dehydrogenase regulates enzyme activity and lactate synthesis” (Frontiers in Bioengineering and Biotechnology, 2022).
# Positions count from the first letter of the chain named. Names and notes keep the numbering of the source.
# B1: Escherichia coli lactate dehydrogenase (LdhA), wild type (enzyme, UniProt P52643 1-329, looked up)
# chain: MKLAVYSTKQYDKKYLQQVNESFGFELEFFDFLLTEKTAKTANGCEAVCIFVNDDGSRPVLEELKKHGVKYIALRCAGFNNVDLDAAKELGLKVVRVPAYDPEAVAEHAIGMMMTLNRRIHRAYQRTRDANFSLEGLTGFTMYGKTAGVIGTGKIGVAMLRILKGFGMRLLAFDPYPSAAALELGVEYVDLPTLFSESDVISLHCPLTPENYHLLNEAAFEQMKNGVMIVNTSRGALIDSQAAIEALKNQKIGSLGMDVYENERDLFFEDKSNDVIQDDVFRRLSACHNVLFTGHQAFLTAEALTSISQTTLQNLSNLEKGETCPNELV
# notes: D-lactate dehydrogenase LdhA of Escherichia coli; Partly acetylated on K9, K70, K154 and K248 when grown with 2% glucose (mass spectrometry); also called EcLdhA; NAD-dependent lactate dehydrogenase
# B2: Escherichia coli LdhA (D279N) (enzyme, UniProt P52643 1-329, looked up)
# chain: B1 chain with D279N
# notes: D-lactate dehydrogenase LdhA of Escherichia coli with D279N; Same construct as m1 with the point mutation; also called LdhA D279N mutant
# B3: Escherichia coli LdhA (K248R) (enzyme, UniProt P52643 1-329, looked up)
# chain: B1 chain with K248R
# notes: D-lactate dehydrogenase LdhA of Escherichia coli with K248R; Same construct as m1 with the point mutation; also called LdhA K248R mutant
# B4: Escherichia coli LdhA (K248Q) (enzyme, UniProt P52643 1-329, looked up)
# chain: B1 chain with K248Q
# notes: D-lactate dehydrogenase LdhA of Escherichia coli with K248Q (mimics acetyl-lysine); Same construct as m1 with the point mutation; also called LdhA K248Q mutant
# Target: the molecule itself
# Assay: SEC; gel filtration analysis of purified LdhA and mutants; retention volumes of the highest peaks compared; column and buffer not told
row,Protein,stoichiometry N
1,B1,4
2,B2,4
3,B3,4
4,B4,4
